{"source": "paper PMC3426546", "biological_target": "ECTV-IL18BP expressed and secreted from mammalian cells, biotinylated (ectromelia virus)", "experiment": "SPR"}
{"substance": "IL18 D110A (ligand)", "values": [{"measurement": "Kd", "result": 0.2, "unit": "nM"}, {"measurement": "koff", "result": "3e-05", "unit": "s⁻¹"}, {"measurement": "kon", "result": 260000, "unit": "M⁻¹ s⁻¹"}]}
